Test results reported in publication PMC3864932, “Identification of Crucial Amino Acids in Mouse Aldehyde Oxidase 3 That Determine Substrate Specificity” (PLoS ONE, 2013).

Columns and labels:
Test in all cases: purified protein
Format in all cases: biochemical, Mus musculus
Conditions in all cases: 100 µM DCPIP as electron acceptor, 50 mM Tris-HCl pH 8.0, 1 mM EDTA, 37 °C, kcat corrected for Mo content
purified protein [1] = substrate: O=Cc1ccccc1
purified protein [2] = substrate: O=c1[nH]cnc2nc[nH]c12
purified protein [3] = substrate: Oc1ncnc2[nH]ncc12

| Protein | Km (purified protein [1]) [µM] | kcat (purified protein [1]) [s⁻¹] | kcat/Km (purified protein [1]) [M⁻¹ s⁻¹] | Km (purified protein [2]) [µM] | kcat (purified protein [2]) [s⁻¹] | kcat/Km (purified protein [2]) [M⁻¹ s⁻¹] | Km (purified protein [3]) [µM] | kcat (purified protein [3]) [s⁻¹] | kcat/Km (purified protein [3]) [M⁻¹ s⁻¹] |
| --- | --- | --- | --- | --- | --- | --- | --- | --- | --- |
| mAOX3 (mouse aldehyde oxidase 3) (Mus musculus; F1014I) (protein, N-terminal His6-tag, full length, plasmid pMMA1, expressed in E. coli; homodimer with Moco, two [2Fe-2S], FAD) MSPSKESDELIFFVNGKKVTERNADPEVNLLFYLRKVIRLTGTKYGCGGGDCGACTVMISRYDPISKRISHFSATACLVPICSLHGAAVTTVEGIGSTKTRIHPVQERIAKGHGTQCGFCTPGMVMSIYTLLRNHPEPSTEQIMETLGGNLCRCTGYRPIVESAKSFCPSSTCCQMNGEGKCCLDEEKNEPERKNSVCTKLYEKKEFQPLDPTQELIFPPELMRMAEESQNTVLTFRGERTTWIAPGTLNDLLELKMKHPSAPLVIGNTYLGLHMKFTDVSYPIIISPARILELFVVTNTKQGLTLGAGLSLTQVKNVLSDVVSRLPKEKTQIYCALLKQLKTLAGQQIRNVASLGGHIISRLPTSDLNPILGIGNCILNVASTEGIQQIPLNDHFLAGVPDAILKPEQVLISVFVPRSSKWEFVSAFRQAPRQQNAFATVNAGMKVVFKEDTNTITDLGILYGGIGATVISADKSCRQLIGRCWDEEMLDDAGKMICEEVSLLMAAPGGMEEYRKTLAISFLFMFYLDVLKQLKTRDPHKYPDISQKLLHILEDFPLTMPYGMQSFQDVDFQQPLQDPIGRPIMHQSGIKHATGEAVFCDDMSVLPGELFLAVVTSSKSHAKIISLDASEALASLGVVDVVTARDVPGDNGREEESLYAQDEVICVGQIVCAVAADSYAHAQQAAKKVKIVYQDIEPMIVTVQDALQYESFIGPERKLEQGNVEEAFQCADQILEGEVHLGGQEHFYMETQSVRVVPKGEDKEMDIYVSSQDAAFTQEMVARTLGIPKNRINCHVKRVGGAFGGKASKPGLLASVAAVAAQKTGRPIRFILERRDDMLITGGRHPLLGKYKIGFMNNGKIKAADIQLYINGGCTPDDSELVIEYALLKLENAYKIPNLRVRGRVCKTNLPSNTAFRGFGFPQGAFVTETCMSAVAAKCRLPPEKVRELNMYRTIDRTIHNQEFDPTNLLQCWEACVENSSYYNRKKAVDEFNQQRFWKKRGIAIIPMKFSVGIPKTFYYQAAALVQIYTDGSVLVAHGGVELGQGINTKMIQVASRELKIPMSYIHLDEMSTVTVPNTVTTGASTGADVNGRAVQNACQILMKRLEPIIKQNPSGTWEEWVKEAFVQSISLSATGYFRGYQADMDWEKGEGDIFPYFVFGAACSEVEIDCLTGAHKNIRTDIVMDGSFSINPAVDIGQIEGAFVQGLGLYTLEELKYSPEGVLYTRGPHQYKIASVTDIPEEFHVSLLTPTPNPKAIYSSKGLGEAGTFLGCSVFFAIAAAVAAAREERGLSPIWAINSPATAEVIRMACEDQFTNLVPQTDSKCCKPWSIPVA | 22.7 ± 2.7 | 0.317 ± 0.05 | 13300 ± 3330 |  |  |  |  |  |  |
| mAOX3 (mouse aldehyde oxidase 3) (Mus musculus; A807E/D878L/F776K/K889H/L881S/P1015T/Y1019L/Y885R) (protein, N-terminal His6-tag, full length, plasmid pMMA1, expressed in E. coli; homodimer with Moco, two [2Fe-2S], FAD) MSPSKESDELIFFVNGKKVTERNADPEVNLLFYLRKVIRLTGTKYGCGGGDCGACTVMISRYDPISKRISHFSATACLVPICSLHGAAVTTVEGIGSTKTRIHPVQERIAKGHGTQCGFCTPGMVMSIYTLLRNHPEPSTEQIMETLGGNLCRCTGYRPIVESAKSFCPSSTCCQMNGEGKCCLDEEKNEPERKNSVCTKLYEKKEFQPLDPTQELIFPPELMRMAEESQNTVLTFRGERTTWIAPGTLNDLLELKMKHPSAPLVIGNTYLGLHMKFTDVSYPIIISPARILELFVVTNTKQGLTLGAGLSLTQVKNVLSDVVSRLPKEKTQIYCALLKQLKTLAGQQIRNVASLGGHIISRLPTSDLNPILGIGNCILNVASTEGIQQIPLNDHFLAGVPDAILKPEQVLISVFVPRSSKWEFVSAFRQAPRQQNAFATVNAGMKVVFKEDTNTITDLGILYGGIGATVISADKSCRQLIGRCWDEEMLDDAGKMICEEVSLLMAAPGGMEEYRKTLAISFLFMFYLDVLKQLKTRDPHKYPDISQKLLHILEDFPLTMPYGMQSFQDVDFQQPLQDPIGRPIMHQSGIKHATGEAVFCDDMSVLPGELFLAVVTSSKSHAKIISLDASEALASLGVVDVVTARDVPGDNGREEESLYAQDEVICVGQIVCAVAADSYAHAQQAAKKVKIVYQDIEPMIVTVQDALQYESFIGPERKLEQGNVEEAFQCADQILEGEVHLGGQEHFYMETQSVRVVPKGEDKEMDIYVSSQDAAKTQEMVARTLGIPKNRINCHVKRVGGAFGGKESKPGLLASVAAVAAQKTGRPIRFILERRDDMLITGGRHPLLGKYKIGFMNNGKIKAADIQLYINGGCTPDLSESVIERALLHLENAYKIPNLRVRGRVCKTNLPSNTAFRGFGFPQGAFVTETCMSAVAAKCRLPPEKVRELNMYRTIDRTIHNQEFDPTNLLQCWEACVENSSYYNRKKAVDEFNQQRFWKKRGIAIIPMKFSVGFTKTFLYQAAALVQIYTDGSVLVAHGGVELGQGINTKMIQVASRELKIPMSYIHLDEMSTVTVPNTVTTGASTGADVNGRAVQNACQILMKRLEPIIKQNPSGTWEEWVKEAFVQSISLSATGYFRGYQADMDWEKGEGDIFPYFVFGAACSEVEIDCLTGAHKNIRTDIVMDGSFSINPAVDIGQIEGAFVQGLGLYTLEELKYSPEGVLYTRGPHQYKIASVTDIPEEFHVSLLTPTPNPKAIYSSKGLGEAGTFLGCSVFFAIAAAVAAAREERGLSPIWAINSPATAEVIRMACEDQFTNLVPQTDSKCCKPWSIPVA | 2122 ± 88 | 3.9 ± 0.25 | 1830 ± 133 | 4085 ± 227 | 0.417 ± 0.0167 | 104 ± 8 | 133 ± 10 | 1.58 ± 0.1 | 12000 ± 1120 |
| mAOX3 (mouse aldehyde oxidase 3) (Mus musculus; A807E/D878L/F776K/L881S/P1015T/Y1019L/Y885R) (protein, N-terminal His6-tag, full length, plasmid pMMA1, expressed in E. coli; homodimer with Moco, two [2Fe-2S], FAD) MSPSKESDELIFFVNGKKVTERNADPEVNLLFYLRKVIRLTGTKYGCGGGDCGACTVMISRYDPISKRISHFSATACLVPICSLHGAAVTTVEGIGSTKTRIHPVQERIAKGHGTQCGFCTPGMVMSIYTLLRNHPEPSTEQIMETLGGNLCRCTGYRPIVESAKSFCPSSTCCQMNGEGKCCLDEEKNEPERKNSVCTKLYEKKEFQPLDPTQELIFPPELMRMAEESQNTVLTFRGERTTWIAPGTLNDLLELKMKHPSAPLVIGNTYLGLHMKFTDVSYPIIISPARILELFVVTNTKQGLTLGAGLSLTQVKNVLSDVVSRLPKEKTQIYCALLKQLKTLAGQQIRNVASLGGHIISRLPTSDLNPILGIGNCILNVASTEGIQQIPLNDHFLAGVPDAILKPEQVLISVFVPRSSKWEFVSAFRQAPRQQNAFATVNAGMKVVFKEDTNTITDLGILYGGIGATVISADKSCRQLIGRCWDEEMLDDAGKMICEEVSLLMAAPGGMEEYRKTLAISFLFMFYLDVLKQLKTRDPHKYPDISQKLLHILEDFPLTMPYGMQSFQDVDFQQPLQDPIGRPIMHQSGIKHATGEAVFCDDMSVLPGELFLAVVTSSKSHAKIISLDASEALASLGVVDVVTARDVPGDNGREEESLYAQDEVICVGQIVCAVAADSYAHAQQAAKKVKIVYQDIEPMIVTVQDALQYESFIGPERKLEQGNVEEAFQCADQILEGEVHLGGQEHFYMETQSVRVVPKGEDKEMDIYVSSQDAAKTQEMVARTLGIPKNRINCHVKRVGGAFGGKESKPGLLASVAAVAAQKTGRPIRFILERRDDMLITGGRHPLLGKYKIGFMNNGKIKAADIQLYINGGCTPDLSESVIERALLKLENAYKIPNLRVRGRVCKTNLPSNTAFRGFGFPQGAFVTETCMSAVAAKCRLPPEKVRELNMYRTIDRTIHNQEFDPTNLLQCWEACVENSSYYNRKKAVDEFNQQRFWKKRGIAIIPMKFSVGFTKTFLYQAAALVQIYTDGSVLVAHGGVELGQGINTKMIQVASRELKIPMSYIHLDEMSTVTVPNTVTTGASTGADVNGRAVQNACQILMKRLEPIIKQNPSGTWEEWVKEAFVQSISLSATGYFRGYQADMDWEKGEGDIFPYFVFGAACSEVEIDCLTGAHKNIRTDIVMDGSFSINPAVDIGQIEGAFVQGLGLYTLEELKYSPEGVLYTRGPHQYKIASVTDIPEEFHVSLLTPTPNPKAIYSSKGLGEAGTFLGCSVFFAIAAAVAAAREERGLSPIWAINSPATAEVIRMACEDQFTNLVPQTDSKCCKPWSIPVA |  |  |  |  |  |  | 2933 ± 380 | 0.233 ± 0.0167 | 83.3 ± 16.7 |
| mAOX3 (mouse aldehyde oxidase 3) (Mus musculus; A807E/D878L/F776K/G1013S/K1016V/K889H/L881S/P1015T/S1011G/V1012I/Y1019L/Y1020N/Y885R) (protein, N-terminal His6-tag, full length, plasmid pMMA1, expressed in E. coli; homodimer with Moco, two [2Fe-2S], FAD) MSPSKESDELIFFVNGKKVTERNADPEVNLLFYLRKVIRLTGTKYGCGGGDCGACTVMISRYDPISKRISHFSATACLVPICSLHGAAVTTVEGIGSTKTRIHPVQERIAKGHGTQCGFCTPGMVMSIYTLLRNHPEPSTEQIMETLGGNLCRCTGYRPIVESAKSFCPSSTCCQMNGEGKCCLDEEKNEPERKNSVCTKLYEKKEFQPLDPTQELIFPPELMRMAEESQNTVLTFRGERTTWIAPGTLNDLLELKMKHPSAPLVIGNTYLGLHMKFTDVSYPIIISPARILELFVVTNTKQGLTLGAGLSLTQVKNVLSDVVSRLPKEKTQIYCALLKQLKTLAGQQIRNVASLGGHIISRLPTSDLNPILGIGNCILNVASTEGIQQIPLNDHFLAGVPDAILKPEQVLISVFVPRSSKWEFVSAFRQAPRQQNAFATVNAGMKVVFKEDTNTITDLGILYGGIGATVISADKSCRQLIGRCWDEEMLDDAGKMICEEVSLLMAAPGGMEEYRKTLAISFLFMFYLDVLKQLKTRDPHKYPDISQKLLHILEDFPLTMPYGMQSFQDVDFQQPLQDPIGRPIMHQSGIKHATGEAVFCDDMSVLPGELFLAVVTSSKSHAKIISLDASEALASLGVVDVVTARDVPGDNGREEESLYAQDEVICVGQIVCAVAADSYAHAQQAAKKVKIVYQDIEPMIVTVQDALQYESFIGPERKLEQGNVEEAFQCADQILEGEVHLGGQEHFYMETQSVRVVPKGEDKEMDIYVSSQDAAKTQEMVARTLGIPKNRINCHVKRVGGAFGGKESKPGLLASVAAVAAQKTGRPIRFILERRDDMLITGGRHPLLGKYKIGFMNNGKIKAADIQLYINGGCTPDLSESVIERALLHLENAYKIPNLRVRGRVCKTNLPSNTAFRGFGFPQGAFVTETCMSAVAAKCRLPPEKVRELNMYRTIDRTIHNQEFDPTNLLQCWEACVENSSYYNRKKAVDEFNQQRFWKKRGIAIIPMKFGISFTVTFLNQAAALVQIYTDGSVLVAHGGVELGQGINTKMIQVASRELKIPMSYIHLDEMSTVTVPNTVTTGASTGADVNGRAVQNACQILMKRLEPIIKQNPSGTWEEWVKEAFVQSISLSATGYFRGYQADMDWEKGEGDIFPYFVFGAACSEVEIDCLTGAHKNIRTDIVMDGSFSINPAVDIGQIEGAFVQGLGLYTLEELKYSPEGVLYTRGPHQYKIASVTDIPEEFHVSLLTPTPNPKAIYSSKGLGEAGTFLGCSVFFAIAAAVAAAREERGLSPIWAINSPATAEVIRMACEDQFTNLVPQTDSKCCKPWSIPVA |  |  |  | 1736 ± 155 | 0.0833 | 47.8 ± 5.83 | 620 ± 16 | 0.65 ± 0.05 | 1050 ± 83.3 |
